PMC4146490 (Nature communications, 2014)

B1: DAZ associated protein 1 (DAZAP1), full length, recombinant (natural protein, human, UniProt Q96EP5 1-407, looked up)
chain: MNNSGADEIGKLFVGGLDWSTTQETLRSYFSQYGEVVDCVIMKDKTTNQSRGFGFVKFKDPNCVGTVLASRPHTLDGRNIDPKPCTPRGMQPERTRPKEGWQKGPRSDNSKSNKIFVGGIPHNCGETELREYFKKFGVVTEVVMIYDAEKQRPRGFGFITFEDEQSVDQAVNMHFHDIMGKKVEVKRAEPRDSKSQAPGQPGASQWGSRVVPNAANGWAGQPPPTWQQGYGPQGMWVPAGQAIGGYGPPPAGRGAPPPPPPFTSYIVSTPPGGFPPPQGFPQGYGAPPQFSFGYGPPPPPPDQFAPPGVPPPPATPGAAPLAFPPPPSQAAPDMSKPPTAQPDFPYGQYAGYGQDLSGFGQGFSDPSQQPPSYGGPSVPGSGGPPAGGSGFGRGQNHNVQGFHPYRR
B2: hnRNP A2, full length, recombinant (natural protein, UniProt P22626-2 1-341, looked up)
chain: MEREKEQFRKLFIGGLSFETTEESLRNYYEQWGKLTDCVVMRDPASKRSRGFGFVTFSSMAEVDAAMAARPHSIDGRVVEPKRAVAREESGKPGAHVTVKKLFVGGIKEDTEEHHLRDYFEEYGKIDTIEIITDRQSGKKRGFGFVTFDDHDPVDKIVLQKYHTINGHNAEVRKALSRQEMQEVQSSRSGRGGNFGFGDSRGGGGNFGPGPGSNFRGGSDGYGSGRGFGDGYNGYGGGPGGGNFGGSPGYGGGRGGYGGGGPGYGNQGGGYGGGYDNYGGGNYGSGNYNDFGNYNQQPSNYGPMKSGNFGGSRNMGGPYGGGNYGPGGSGGSGGYGGRSRY
B3: hnRNP A0, full length, recombinant (natural protein, UniProt Q13151 1-305, looked up)
chain: MENSQLCKLFIGGLNVQTSESGLRGHFEAFGTLTDCVVVVNPQTKRSRCFGFVTYSNVEEADAAMAASPHAVDGNTVELKRAVSREDSARPGAHAKVKKLFVGGLKGDVAEGDLIEHFSQFGTVEKAEIIADKQSGKKRGFGFVYFQNHDAADKAAVVKFHPIQGHRVEVKKAVPKEDIYSGGGGGGSRSSRGGRGGRGRGGGRDQNGLSKGGGGGYNSYGGYGGGGGGGYNAYGGGGGGSSYGGSDYGNGFGGFGSYSQHQSSYGPMKSGGGGGGGGSSWGGRSNSGPYRGGYGGGGGYGGSSF

Assays:
[1] = target: B3; test: ITC
[2] = target: B1; test: ITC

stoichiometry N [1] | binding result [2] | Binder
1 |  | B1
 | binds | B2
 | binds | B3
